We go through three molecules from EP4786492A1 (Simcere Zaiming Pharmaceutical Co., Ltd., dated 2026).

One experiment concerns the target T1, monkey DLL3-his protein (cynomolgus monkey, UniProt Q9NYJ7 27-490 (human entry)).
T1 construct: a bought cynomolgus DLL3-His (Acro DL3-C52H3) is also named; also called monkey DLL3 protein; cynomolgus monkey DLL3-His; not shown: His tag
T1 chain: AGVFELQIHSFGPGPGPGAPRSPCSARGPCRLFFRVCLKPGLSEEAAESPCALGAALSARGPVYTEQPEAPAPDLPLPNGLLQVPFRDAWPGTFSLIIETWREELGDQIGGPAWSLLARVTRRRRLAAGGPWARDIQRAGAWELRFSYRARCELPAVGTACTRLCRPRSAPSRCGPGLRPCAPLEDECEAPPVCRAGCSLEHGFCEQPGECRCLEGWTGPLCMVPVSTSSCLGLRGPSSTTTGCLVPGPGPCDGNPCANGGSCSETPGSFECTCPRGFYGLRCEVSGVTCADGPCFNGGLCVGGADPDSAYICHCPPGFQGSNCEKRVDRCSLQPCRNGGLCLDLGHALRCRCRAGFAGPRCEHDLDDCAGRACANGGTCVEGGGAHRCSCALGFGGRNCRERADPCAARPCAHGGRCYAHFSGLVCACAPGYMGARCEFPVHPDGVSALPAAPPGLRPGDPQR
The experiment can be described thus: ELISA, coated DLL3-his. Background: ELISA stands for enzyme-linked immunosorbent assay.

The target of experiment [1] is T2, human DLL3-his protein (human, UniProt Q9NYJ7 27-492).
T2 construct: also called human DLL3 protein; DLL3 antigen protein; not shown: His tag
T2 sequence: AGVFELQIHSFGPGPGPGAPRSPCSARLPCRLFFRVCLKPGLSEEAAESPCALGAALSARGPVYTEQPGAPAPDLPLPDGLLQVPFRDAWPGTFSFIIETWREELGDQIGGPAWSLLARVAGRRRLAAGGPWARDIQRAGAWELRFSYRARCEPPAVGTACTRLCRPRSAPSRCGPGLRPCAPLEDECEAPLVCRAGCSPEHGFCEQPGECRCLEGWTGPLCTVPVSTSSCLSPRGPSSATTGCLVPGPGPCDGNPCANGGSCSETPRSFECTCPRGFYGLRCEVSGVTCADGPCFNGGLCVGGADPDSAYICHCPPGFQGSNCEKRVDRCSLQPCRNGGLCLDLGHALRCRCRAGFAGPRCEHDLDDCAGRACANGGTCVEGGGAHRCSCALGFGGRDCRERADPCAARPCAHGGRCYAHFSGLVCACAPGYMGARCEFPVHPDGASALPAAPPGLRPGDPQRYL
Description: SPR Biacore 8K, antibody captured on Protein A.

The target of experiment [2] is T2, human DLL3-his protein. Description: ELISA, coated DLL3-his.

B1: BI3 (antibody, human IgG1, kappa, V domains shown)
VH: QVQLVQSGAEVKKPGASVKVSCKASGYTFTSYYVHWVRQAPGQGLEWMVIINPGGGTTSYAQKFLGRVTMTRDTSTNTVYMELKSLRSEDTAVYYCARGEAVTGNYFYYGMDVWGQGTTVTVSS
VL: DIQMTQSPSAMSASVGDRVTITCRASQGISNYLVWFQQKPGKAPKRLIYAVSSLYSGVPSRFSGSGSGTEFTLTISSLQPEDFATYYCLQHDSYPYTFGQGTKLEIKR
notes: expressed in the complete IgG format; variable regions from WO2019234220A1; also called control antibody
B1: the binding result with monkey DLL3-his protein was “binds”.

B2: Hab015VL4VH6b-hFc (Fc fusion)
scFv (part 1 of 2): NIVLTQSPATLSLSPGERATLSCKASENVGTYVSWFQQKPGQSPRLLIYGASNRYTGIPARFSGSGSGTDFTLTISSLEPEDFAVYYCGQFYSFPSTFGGGTKVEIK
scFv (part 2 of 2): EVQLVESGGGLVKPGGSLRLSCAASGITFSNFWMNWVRQAPEKGLEWVGQIRLKSDQYATHYAESVKGRFTISREDSKNTVYLQMNSLKTEDTAVYYCTTGYYFDYWGQGTTVTVSS
notes: humanized mab015, VL-linker-VH-human IgG1 Fc; also called Hab015L4H6b; not shown: linker; human IgG1 Fc fragment
With B2, the binding result with human DLL3-his protein [1] is given as “binds”.

B3: SC16.56 (antibody, human IgG1, kappa, V domains shown)
VH: QVQLVQSGAEVKKPGASVKVSCKASGYTFTNYGMNWVRQAPGQGLEWMGWINTYTGEPTYADDFKGRVTMTTDTSTSTAYMELRSLRSDDTAVYYCARIGDSSPSDYWGQGTLVTVSS
VL: EIVMTQSPATLSVSPGERATLSCKASQSVSNDVVWYQQKPGQAPRLLIYYASNRYTGIPARFSGSGSGTEFTLTISSLQSEDFAVYYCQQDYTSPWTFGQGTKLEIKR
notes: expressed in the complete IgG format; variable regions from US20200138969A1; also called control antibody
As for B3, the binding result with human DLL3-his protein [2] and with monkey DLL3-his protein was “binds” in each case.
